Molecular target: His-tagged full-length ActA (ActA[1–584Rhis]) (Listeria monocytogenes)
Test: co-sedimentation

Chain of His-tagged full-length ActA (ActA[1–584Rhis]) (Listeria monocytogenes) (P33379 30-613 limits assumed): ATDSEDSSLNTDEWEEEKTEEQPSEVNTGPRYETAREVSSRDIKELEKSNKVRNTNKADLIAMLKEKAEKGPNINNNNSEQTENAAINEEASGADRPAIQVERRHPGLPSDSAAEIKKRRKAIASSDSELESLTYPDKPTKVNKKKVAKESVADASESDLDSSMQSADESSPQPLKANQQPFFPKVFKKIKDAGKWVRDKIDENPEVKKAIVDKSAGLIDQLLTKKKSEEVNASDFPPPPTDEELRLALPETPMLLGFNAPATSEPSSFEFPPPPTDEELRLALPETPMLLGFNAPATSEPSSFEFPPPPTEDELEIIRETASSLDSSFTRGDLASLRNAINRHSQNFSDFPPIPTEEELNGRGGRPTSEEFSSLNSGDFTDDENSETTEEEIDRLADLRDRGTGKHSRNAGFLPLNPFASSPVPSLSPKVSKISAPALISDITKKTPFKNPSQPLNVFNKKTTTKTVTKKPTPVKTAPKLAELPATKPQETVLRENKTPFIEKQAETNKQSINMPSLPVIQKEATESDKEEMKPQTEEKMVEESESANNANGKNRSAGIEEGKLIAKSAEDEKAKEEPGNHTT

His-tagged human vasodilator-stimulated phosphoprotein (VASP) (from UniProt P50552 1-380) (natural protein)
percent bound: > 90%
